From patent publication US20180155407A1 (Sanofi, published 2018)
Numbered stars: 1 amine (or outer) side, 2 acyl side, 3 side chain; on linkers, the order of the positions; unused ones are H or OH. Square brackets hold non-standard residues; d marks the D form. Side chains are listed from the residue outwards. Ends that are not written are not given here. * marks the point of attachment. γGlu = O=C(O)[C@H](CCC(=O)[*:2])N[*:1]; Stearoyl = CCCCCCCCCCCCCCCCCC(=O)*; Palmitoyl = CCCCCCCCCCCCCCCC(=O)*; AEEA = NCCOCCOCC(=O)O; Aib = CC(C)(N)C(=O)O

T1: human GIP receptor (human, UniProt P48546 22-466)
T1 sequence (looked up): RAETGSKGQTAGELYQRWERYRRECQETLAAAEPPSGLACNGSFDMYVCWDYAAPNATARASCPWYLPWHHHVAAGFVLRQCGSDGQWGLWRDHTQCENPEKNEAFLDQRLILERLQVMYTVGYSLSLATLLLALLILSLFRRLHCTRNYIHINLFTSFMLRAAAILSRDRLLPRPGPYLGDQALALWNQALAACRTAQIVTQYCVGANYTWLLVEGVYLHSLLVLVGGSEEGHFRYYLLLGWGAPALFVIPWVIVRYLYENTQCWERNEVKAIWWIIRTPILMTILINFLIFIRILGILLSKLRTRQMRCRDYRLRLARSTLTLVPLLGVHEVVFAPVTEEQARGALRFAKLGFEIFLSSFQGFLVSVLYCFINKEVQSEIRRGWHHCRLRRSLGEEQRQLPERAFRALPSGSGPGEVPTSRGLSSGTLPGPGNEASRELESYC


Assays:
Assay in all cases: cell-based or functional assay
human glucagon receptor = human glucagon receptor (human, UniProt P47871 26-477)
Sequence of human glucagon receptor (P47871 26-477): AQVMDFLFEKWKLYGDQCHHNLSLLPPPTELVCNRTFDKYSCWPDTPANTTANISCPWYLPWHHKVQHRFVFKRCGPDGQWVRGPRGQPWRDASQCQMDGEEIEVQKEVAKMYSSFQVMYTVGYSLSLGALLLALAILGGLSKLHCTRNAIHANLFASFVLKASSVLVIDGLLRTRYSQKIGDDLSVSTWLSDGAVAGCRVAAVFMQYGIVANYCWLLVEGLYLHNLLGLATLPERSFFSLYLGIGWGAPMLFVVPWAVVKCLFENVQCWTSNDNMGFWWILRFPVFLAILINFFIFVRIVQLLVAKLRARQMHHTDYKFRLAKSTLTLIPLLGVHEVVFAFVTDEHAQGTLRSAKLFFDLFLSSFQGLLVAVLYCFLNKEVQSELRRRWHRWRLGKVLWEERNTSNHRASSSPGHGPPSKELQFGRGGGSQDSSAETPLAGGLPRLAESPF

human GIP receptor = biological target: T1, human GIP receptor
human GLP-1 receptor = human GLP-1 receptor (human, UniProt P43220 24-463)

Binder	EC50 hGlucagon R (cAMP formation) (human glucagon receptor) [pM]	EC50 hGIP R (cAMP formation) (human GIP receptor) [pM]	EC50 hGLP-1R (cAMP formation) (human GLP-1 receptor) [pM]
H[Aib]QGTFTSDLSKLK([γGlu-γGlu-AEEA-Palmitoyl])EKQRQ[Aib]EFIEWLKAGGHPS[Aib]KPPPK-NH2 (N-terminus assumed; SMILES CCCCCCCCCCCCCCCC(=O)NCCOCCOCC(=O)N[C@@H](CCC(=O)N[C@@H](CCC(=O)NCCCC[C@H](NC(=O)[C@H](CC(C)C)NC(=O)[C@H](CCCCN)NC(=O)[C@H](CO)NC(=O)[C@H](CC(C)C)NC(=O)[C@H](CC(=O)O)NC(=O)[C@H](CO)NC(=O)[C@@H](NC(=O)[C@H](Cc1ccccc1)NC(=O)[C@@H](NC(=O)CNC(=O)[C@H](CCC(N)=O)NC(=O)C(C)(C)NC(=O)[C@@H](N)Cc1c[nH]cn1)[C@@H](C)O)[C@@H](C)O)C(=O)N[C@@H](CCC(=O)O)C(=O)N[C@@H](CCCCN)C(=O)N[C@@H](CCC(N)=O)C(=O)N[C@@H](CCCNC(=N)N)C(=O)N[C@@H](CCC(N)=O)C(=O)NC(C)(C)C(=O)N[C@@H](CCC(=O)O)C(=O)N[C@@H](Cc1ccccc1)C(=O)N[C@H](C(=O)N[C@@H](CCC(=O)O)C(=O)N[C@@H](Cc1c[nH]c2ccccc12)C(=O)N[C@@H](CC(C)C)C(=O)N[C@@H](CCCCN)C(=O)N[C@@H](C)C(=O)NCC(=O)NCC(=O)N[C@@H](Cc1c[nH]cn1)C(=O)N1CCC[C@H]1C(=O)N[C@@H](CO)C(=O)NC(C)(C)C(=O)N[C@@H](CCCCN)C(=O)N1CCC[C@H]1C(=O)N1CCC[C@H]1C(=O)N1CCC[C@H]1C(=O)N[C@@H](CCCCN)C(N)=O)[C@@H](C)CC)C(=O)O)C(=O)O) [SEQ ID NO: 16]	18.6	7.5	1.3
H[Aib]QGTFTSDLSKLK([γGlu-Palmitoyl])EKQRQ[Aib]EFIEWLKAGGPPS[Aib]KPPPK-NH2 (N-terminus assumed; SMILES CCCCCCCCCCCCCCCC(=O)N[C@@H](CCC(=O)NCCCC[C@H](NC(=O)[C@H](CC(C)C)NC(=O)[C@H](CCCCN)NC(=O)[C@H](CO)NC(=O)[C@H](CC(C)C)NC(=O)[C@H](CC(=O)O)NC(=O)[C@H](CO)NC(=O)[C@@H](NC(=O)[C@H](Cc1ccccc1)NC(=O)[C@@H](NC(=O)CNC(=O)[C@H](CCC(N)=O)NC(=O)C(C)(C)NC(=O)[C@@H](N)Cc1c[nH]cn1)[C@@H](C)O)[C@@H](C)O)C(=O)N[C@@H](CCC(=O)O)C(=O)N[C@@H](CCCCN)C(=O)N[C@@H](CCC(N)=O)C(=O)N[C@@H](CCCNC(=N)N)C(=O)N[C@@H](CCC(N)=O)C(=O)NC(C)(C)C(=O)N[C@@H](CCC(=O)O)C(=O)N[C@@H](Cc1ccccc1)C(=O)N[C@H](C(=O)N[C@@H](CCC(=O)O)C(=O)N[C@@H](Cc1c[nH]c2ccccc12)C(=O)N[C@@H](CC(C)C)C(=O)N[C@@H](CCCCN)C(=O)N[C@@H](C)C(=O)NCC(=O)NCC(=O)N1CCC[C@H]1C(=O)N1CCC[C@H]1C(=O)N[C@@H](CO)C(=O)NC(C)(C)C(=O)N[C@@H](CCCCN)C(=O)N1CCC[C@H]1C(=O)N1CCC[C@H]1C(=O)N1CCC[C@H]1C(=O)N[C@@H](CCCCN)C(N)=O)[C@@H](C)CC)C(=O)O) [SEQ ID NO: 14]	31.6	18.2	5.7
H[Aib]QGTFTSDLSKLK([γGlu-γGlu-AEEA-Palmitoyl])EKQRQ[Aib]EFIEWLKA[dA]GHPS[Aib]KPPPK-NH2 (N-terminus assumed; SMILES CCCCCCCCCCCCCCCC(=O)NCCOCCOCC(=O)N[C@@H](CCC(=O)N[C@@H](CCC(=O)NCCCC[C@H](NC(=O)[C@H](CC(C)C)NC(=O)[C@H](CCCCN)NC(=O)[C@H](CO)NC(=O)[C@H](CC(C)C)NC(=O)[C@H](CC(=O)O)NC(=O)[C@H](CO)NC(=O)[C@@H](NC(=O)[C@H](Cc1ccccc1)NC(=O)[C@@H](NC(=O)CNC(=O)[C@H](CCC(N)=O)NC(=O)C(C)(C)NC(=O)[C@@H](N)Cc1c[nH]cn1)[C@@H](C)O)[C@@H](C)O)C(=O)N[C@@H](CCC(=O)O)C(=O)N[C@@H](CCCCN)C(=O)N[C@@H](CCC(N)=O)C(=O)N[C@@H](CCCNC(=N)N)C(=O)N[C@@H](CCC(N)=O)C(=O)NC(C)(C)C(=O)N[C@@H](CCC(=O)O)C(=O)N[C@@H](Cc1ccccc1)C(=O)N[C@H](C(=O)N[C@@H](CCC(=O)O)C(=O)N[C@@H](Cc1c[nH]c2ccccc12)C(=O)N[C@@H](CC(C)C)C(=O)N[C@@H](CCCCN)C(=O)N[C@@H](C)C(=O)N[C@H](C)C(=O)NCC(=O)N[C@@H](Cc1c[nH]cn1)C(=O)N1CCC[C@H]1C(=O)N[C@@H](CO)C(=O)NC(C)(C)C(=O)N[C@@H](CCCCN)C(=O)N1CCC[C@H]1C(=O)N1CCC[C@H]1C(=O)N1CCC[C@H]1C(=O)N[C@@H](CCCCN)C(N)=O)[C@@H](C)CC)C(=O)O)C(=O)O) [SEQ ID NO: 17]	22	11.4	1.8
H[Aib]QGTFTSDLSKLK([γGlu-Stearoyl])EKQRQ[Aib]EFIEWLKAGGPPS[Aib]KPPPK-NH2 (N-terminus assumed; SMILES CCCCCCCCCCCCCCCCCC(=O)N[C@@H](CCC(=O)NCCCC[C@H](NC(=O)[C@H](CC(C)C)NC(=O)[C@H](CCCCN)NC(=O)[C@H](CO)NC(=O)[C@H](CC(C)C)NC(=O)[C@H](CC(=O)O)NC(=O)[C@H](CO)NC(=O)[C@@H](NC(=O)[C@H](Cc1ccccc1)NC(=O)[C@@H](NC(=O)CNC(=O)[C@H](CCC(N)=O)NC(=O)C(C)(C)NC(=O)[C@@H](N)Cc1c[nH]cn1)[C@@H](C)O)[C@@H](C)O)C(=O)N[C@@H](CCC(=O)O)C(=O)N[C@@H](CCCCN)C(=O)N[C@@H](CCC(N)=O)C(=O)N[C@@H](CCCNC(=N)N)C(=O)N[C@@H](CCC(N)=O)C(=O)NC(C)(C)C(=O)N[C@@H](CCC(=O)O)C(=O)N[C@@H](Cc1ccccc1)C(=O)N[C@H](C(=O)N[C@@H](CCC(=O)O)C(=O)N[C@@H](Cc1c[nH]c2ccccc12)C(=O)N[C@@H](CC(C)C)C(=O)N[C@@H](CCCCN)C(=O)N[C@@H](C)C(=O)NCC(=O)NCC(=O)N1CCC[C@H]1C(=O)N1CCC[C@H]1C(=O)N[C@@H](CO)C(=O)NC(C)(C)C(=O)N[C@@H](CCCCN)C(=O)N1CCC[C@H]1C(=O)N1CCC[C@H]1C(=O)N1CCC[C@H]1C(=O)N[C@@H](CCCCN)C(N)=O)[C@@H](C)CC)C(=O)O) [SEQ ID NO: 15]	15.6	26.1	5.7
